Experimental data taken from the supplement of paper PMC12042874.
± gives the uncertainty stated by the source.

Assay: amyloid nucleation score (Sup35N fusion, yeast selection) (log enrichment); library NNK3; higher = more nucleation; inactive = no reads after selection
Summary of the method: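 Output and input plasmid inserts were sequenced by Illumina after psi-negative yeast carrying Sup35N fused to peptides of 20 random codons had been induced 24 hours with 100 μM copper sulfate and grown 7 days at 30°C on medium lacking adenine and uracil. The nucleation score is the DiMSum log enrichment of output over input reads, centred on the mode score of non-aggregating sequences. Sequences with under 100 input reads were excluded.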

Substance	amyloid nucleation score
HIWVCLEVGVGKSILVLLLF	inactive
GWGIICFAKY	inactive
LSPQSIVSYYTLWTFGFTAC	-0.28 ± 0.77
KYLLLKRNARQRLHTVCHQA	inactive
YCGKCRAFCCQSCPIRVRLV	inactive
RHGVTMRLSCQTWHFAFHLR	inactive
LKYSSDQYLCRTFLGISGFG	inactive
ARAYRDQGWPEKEIAQHK	inactive
HWFRTGDMGVDFTVEACDWL	inactive
TLAIGLIDEFRLHA	1.09 ± 0.13
NHYLT	inactive
SSDFTSWDVREILGRAVVLC	inactive
LYSPYLGCDNGATQFWSGTT	0.226 ± 0.88
SKLCVVTFLCIQTCQYDLCV	inactive
TICPTFPVGGMNISNGSYTM	inactive
FLLEYYVCMFAVWSIWGMGH	0.317 ± 0.75
FNVSHLVRYSVCYFCGMIEL	1.89 ± 0.063
GYQDSIGFSSR	inactive
QTRELRSQLLMPFSITDVRS	inactive
QMLLDRRGKSTAATRVAPTD	inactive
AVLGLMLPCFRARRAWIAPP	-0.22 ± 1.5
LHVSWGGLSGDTLFTRKVGV	inactive
FSNQSNFNMELLLKDRDSTP	inactive

Substance	amyloid nucleation score
EGVTII	inactive
INYSWFDLSMALTK	inactive
LSSETWRRLQIVSIHYGLVV	inactive
GSVGTNCSGFVAPELRSPRC	inactive
NFGLFREVGLFIRLWIANAA	inactive
ATDNVCVI	inactive
QSEICLSWCIQSVGDVVDYR	inactive
PRQRLMMWSRRG	inactive
PMPCIYVSGVWHRVLLCFLS	inactive
SYDMTLHG	0.436 ± 0.18
HLNLTHNWNVYGKDLNGQFF	2.13 ± 0.072
TSYSKEVFQLLKWVGNLIRG	inactive
IFCMFYGSMQAQTIKCNVTH	1.19 ± 0.093
DGDFIWISYVRKPKVNNDMF	inactive
SWFVHKFSIRYNLFDFSYIF	inactive
LYDCSINKQG	inactive
SKNDIQARGSRKKCSNKGAK	inactive
KFYDSISRLQNERGPVIFPR	inactive
NDRVIRVGVN	inactive
SNTHLYCLMFRLPCRILDRK	inactive
SRKLCSHR	-0.557 ± 0.66
SSWPICMPASQNLLLNIGLG	inactive
HFNPPYRMFPHYVLLMNMYL	inactive

Substance	amyloid nucleation score
PPKGKSWMLIVVNRLGEDEQ	inactive
CSPGRIFHNGK	inactive
VQAAKLVYHYQGSCLNRLRE	inactive
SDYHWYVRTSCGSFSYGHVN	inactive
WCFWNSC	inactive
FRNRCVNDD	inactive
LAVGRTWMLVANWDSMGQIV	inactive
AWRCLGSYCMRLRVSIKSQ	inactive
EVLSMYRCSNVFLWFTKFIA	inactive
AWFTEVYFKPSFRKR	inactive
HTILSTTTYMKMSQYSLW	inactive
LDLLHFGYFIYFDEL	inactive
VLTIRRFLRVSHFRNQWFPV	inactive
VIWAVPAH	inactive
LNHGVCIFYDQFANLELPPR	2.09 ± 0.067
HDESQVVLCRYCCSDVRLTH	inactive
SGGGIPGTLGSGDPSSPNTQ	inactive
HRVDND	inactive
KIDAN	inactive
CFNNRARP	inactive
DSGLCV	inactive
VYECFSSWTWSWVCQCQAVF	inactive
KEAPIWRKKGQNLLLPVSGW	inactive

Substance	amyloid nucleation score
NRASSVSCS	inactive
IYGVRYWV	inactive
SRRSSS	1.28 ± 0.11
VSACIWRKLPVFVYSVSAGS	inactive
YQVVVGNFCLLHSVCI	0.124 ± 0.38
LPMQYKLLSVFVADFFTIFV	-1.07 ± 1.7
WVHFYDTMGDM	inactive
FGGLRTATL	inactive
RQQRLRRKPLFWDNQAKANY	0.211 ± 0.24
IGKRSVRVIDPVFYKPFANM	inactive
PCLFTSSVSIFYNDALLVLS	inactive
ATSCILMMDLSRYYVGLYHR	0.88 ± 0.094
GALMCPPRLVS	inactive
FSCIPCG	inactive
NDTFNAK	inactive
PNGSEIENLMYRGTLSC	inactive
FSHFMSSTYYCC	1.73 ± 0.12
WFVQLSRMWFYANGNCPV	inactive
HRLVFCQLTR	inactive
WSDIIVGIRTNCDVLFSGAY	inactive
RGSGWRTYVCTGSYALRV	inactive
FKYLVIVNNWG	2.82 ± 0.071
LFSVMSKYSFRWLRDNFCHA	inactive

Substance	amyloid nucleation score
LIVNSRSVFNITHFLNINYQ	2.1 ± 0.077
VSRFVLLWMSNCWATYGLFR	inactive
VFLSICSEGTFCLGDLSGCV	2.43 ± 0.082
ILKVLFKF	1.13 ± 0.1
VDIGTYMFKMTHADRWVDHG	inactive
TIEIGSLYTITM	-0.251 ± 0.45
SSSVTVYRFKGSTSSLGTNY	inactive
YFLRREQLYNLRKGK	inactive
RRGYLVYFGSTFYYSSNSFW	0.468 ± 0.19
YTLMFNCRFALLFYYTFSYG	inactive
HYDFWIISYLPRSPGNMAID	inactive
VRRTLYISMRLRLIPYLSNV	1.62 ± 0.11
VTPVTYQASLTICYSYKALH	inactive
YVLNKGFWGGNTLQSWRVSD	inactive
NGLPARRV	inactive
FLNCFSC	2.69 ± 0.054
LLCLLQYLWPRRDSYYACLR	0.782 ± 0.18
VVCLFDVKFESARVLDLLSV	inactive
NEQVGDGLFCP	-0.057 ± 0.75
KYVVSYLGFKFGWKHYSKYY	inactive
KMCIDFEPELYNLFLLAFHQ	inactive
NDQAYMFYIGVYTTLCIGLK	inactive
SIMLFWVTGRLLRLSLLMLL	0.45 ± 0.21

Substance	amyloid nucleation score
HRELRVTVHQKFNLRMRVSD	inactive
YAAIPQIVINVLVGGTNASC	2.1 ± 0.069
FRSWPS	inactive
SRAAPRFRSIP	inactive
KANDMVFMGGGVLKLGRTLA	inactive
SCRIMSRYGAQIWCDPTYQA	inactive
SNYGTYRRNSPHSCLRTFWR	inactive
RCHISERD	inactive
LYLVMSYV	inactive
LKVVLYGVHQSCEYMRSRLS	inactive
ESSMFARDTLWMSFVRTMHS	inactive
FLHDFSILIGMICNQIGITL	1.24 ± 0.17
VKGIEVNRLMFEERISGCYV	inactive
LSIDEWRFSSANSTALECHV	inactive
SCSSTDDWPGISSG	inactive
VQSMKMGPVRISKCNDKSER	inactive
KVGFLFDGLFIFGGR	inactive
NFFVTFICAFEEAYMTKQLR	2 ± 0.082
YGSKWTLKVFWIMMCFDELP	inactive
ILTGNGYDSTRKAYCQFWCF	inactive
TIVRY	1.1 ± 0.21
SQVDIMGKPADAFVPWFDGS	inactive
NVVIFML	2.47 ± 0.076

Substance	amyloid nucleation score
KINRVSLLVLGH	inactive
DRELSFLPGYYLYARVRHKS	inactive
SGSSVPSLYCVDYAVDG	inactive
FGIWRLCRFFA	inactive
EPRGCYRQMLHKLIMS	inactive
LSYYVFRYTNTHWSPCFYIE	inactive
GVLREEL	inactive
ICISKRYWHDIAFCIGYSNE	1.29 ± 0.12
SRILRYVTLSEYWFQPIGLD	inactive
YVLRLASCSFTPVSEVHLSW	inactive
LVRRHSFSGYRRDT	inactive
GGTIFNGNWVSTLSHPQRRA	0.47 ± 0.25
QLMPKRAVKRDYRDSSWSGV	inactive
TIATLRF	inactive
VPSQLFLHRHHCVVWIEDMW	0.827 ± 0.19
NNTDCYESNVVFFSTAIHLS	1.6 ± 0.12
HTVKEGSSNNVVRVRIARRF	inactive
MVLLI	-0.031 ± 1
VSETMWMSFLTVSFELRVDG	inactive
RFIGFYPLLQGKNAASGRVL	inactive
SVNLFVLMYLFII	1.9 ± 0.061
IASAYLSVLRYPFRIAKGLI	inactive
